# Assay results taken from US20120164688A1 (Regeneron, published 2012).
# B1: human neurotrophin-3 (NT-3) (ligand, UniProt P20783 139-257, looked up)
# chain: YAEHKSHRGEYSVCDSESLWVTDKSSAIDIRGHQVTVLGEIKTGNSPVKQYFYETRCKEARPVKNGCRGIDDKHWNSQCKTSQTYVRALTSENNKLVGWRWIRIDTSCVCALSRKIGRT
# notes: also called human NT-3
# B2: REGN475 (antibody, human IgG4 S228P)
# heavy: not shown
# VL: DIQMTQSPSSLSASAGDRVTITCRASQAIRNDLGWYQQKPGKAPKRLIYAAFNLQSGVPSRFSGSGSGTEFTLTISSLQPEDLASYYCQQYNRYPWTFGQGTKVEIKR
# Legend:
# [1] = target: T1, human nerve growth factor (NGF) (human, UniProt P01138 122-241); experiment: competition ELISA; 50 pM biotin-NGF, hTrkA-hFc plate
# T1 construct: range 122-241; biotin-labeled in OCTET and ELISA assays; also called human NGF; biotin-NGF
# Experimental: (§1) Specifically, the microtiter plates were prepared by coating the plates with 0.5 μg/ml hTrkA-hFc or 1 μg/ml hp75-hFc solution in PBS buffer overnight at 4° C., followed by blocking the plates with 0.5% BSA prior to use.
# [2] = target: T1, human nerve growth factor (NGF); experiment: BIACORE blocking; % free NGF bound to p75-hFc chip
# From the text: (§2) To identify blocking antibodies, a receptor blocking assay was designed using a BIACORE™ 3000 instrument. Recombinant human TrkA-hFc and human p75-hFc proteins were amine-coupled to a CM5 chip to a density of about 5000-6000 RU.
# [3] = target: T1, human nerve growth factor (NGF); experiment: competition ELISA; 50 pM biotin-NGF, hp75-hFc plate
# Experimental: as §1
# [4] = target: T1, human nerve growth factor (NGF); experiment: BIACORE SPR; purified mAb
# Experimental: (§3) Antibodies were captured on either a goat, anti-human or anti-mouse IgG polyclonal antibody surface created by direct amine coupling of the capture antibody to a BIACORE™ chip. […] Kinetic analysis was performed to obtain the equilibrium dissociation constant (KD) and dissociation rate constant, and the latter was used to calculate the antigen/antibody complex dissociation t_{1/2} (Table 1).
# [5] = target: T1, human nerve growth factor (NGF); experiment: BIACORE SPR; purified mAb; remark: listed apart in the source
# rat NGF (rNGF) [6] = target: T2, rat NGF (rNGF) (rat, UniProt P25427 122-241, limits assumed); experiment: BIACORE SPR; purified mAb
# mouse NGF (mNGF) [7] = target: T3, mouse NGF (mNGF) (mouse, UniProt P01139 122-241, limits assumed); experiment: BIACORE SPR; purified mAb
# [8] = target: B1; experiment: BIACORE SPR
# [9] = target: T1, human nerve growth factor (NGF); experiment: BIACORE blocking; % free NGF bound to TrkA-hFc chip
# From the text: as §2
# [10] = target: B1; experiment: BIACORE; 20 nM NT-3 + 500 nM agent, % NT-3 bound to TrkB-hFc chip
# Experimental: (§4) Human TrkA-hFc (9300 RU), human TrkB-hFc (6000 RU), human TrkC-hFc (9100 RU) and human p75-hFc (7500 RU) were covalently coupled to BIACORE® CM5 chip surfaces by amine-coupling procedure. […] The binding mixture was first incubated at room temperature to reach equilibrium (about 1 hr) and then was injected over the above TrkA-hFc, TrkB-hFc, TrkC-hFc and p75-hFc surfaces.
# [11] = target: B1; experiment: BIACORE; 20 nM NT-3 + 500 nM agent, % NT-3 bound to TrkA-hFc chip
# Experimental: as §4
# [12] = target: B1; experiment: BIACORE; 20 nM NT-3 + 500 nM agent, % NT-3 bound to TrkC-hFc chip
# Experimental: as §4
# [13] = target: B1; experiment: BIACORE; 20 nM NT-3 + 500 nM agent, % NT-3 bound to p75-hFc chip
# Experimental: as §4
# [14] = target: T1, human nerve growth factor (NGF); experiment: BIACORE SPR; mAb captured, human NGF injected
# Experimental: as §3
# [15] = target: T1, human nerve growth factor (NGF); experiment: BIACORE SPR
# Experimental: as §3
# (§5) The binding affinities of the antibodies to both mNGF and rNGF were determined as described above.
# rat NGF (rNGF) [16] = target: T2, rat NGF (rNGF); experiment: BIACORE SPR
# Experimental: as §3, §5
# mouse NGF (mNGF) [17] = target: T3, mouse NGF (mNGF); experiment: BIACORE SPR
# Experimental: as §3, §5
# [18] = target: T1, human nerve growth factor (NGF); experiment: BIACORE SPR; complex dissociation half-life
# Experimental: as §3
# [19] = target: T1, human nerve growth factor (NGF); experiment: cell-based or functional assay
# [20] = target: T1, human nerve growth factor (NGF); experiment: BIACORE SPR; mAb captured, 20 nM NGF
# Experimental: (§6) Briefly, goat anti-human IgG polyclonal antibody was chemically linked to a CM5 chip. […] Both association and dissociation phases were monitored and data were analyzed.
# [21] = target: B1; experiment: BIACORE SPR; mAb captured, NT-3 injected
# Experimental: as §6
# [22] = target: T4, humanized anti-human NGF monoclonal antibody E3 ("RN624") (tanezumab; CAS Registry No. 880266-57-9); experiment: OCTET; % RN624 binding to biotin-NGF sensor, no competitor (reference)
# T4 construct: control antibody; also called Control (RN624); Control mAb (RN624)
# Experimental: (§7) Changes in the thickness of the biological layer were measured after incubation. The binding was normalized as a percentage of binding relative to the binding of antibody in absence of competitor.
# REGN475 = target: B2; experiment: OCTET; % REGN475 binding to biotin-NGF sensor, no competitor (reference)
# Experimental: as §7
# [23] = target: T1, human nerve growth factor (NGF); experiment: cell-based or functional assay; remark: listed apart in the source
# [24] = target: B1; experiment: OCTET solution competition against biotin-NGF sensor
# Experimental: as §7
# T2 sequence (P25427 122-241 limits assumed): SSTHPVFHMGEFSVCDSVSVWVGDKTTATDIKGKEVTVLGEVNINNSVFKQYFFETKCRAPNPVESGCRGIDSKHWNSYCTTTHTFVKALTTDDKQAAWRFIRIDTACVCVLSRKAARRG
# T1 sequence (P01138 122-241 limits assumed): as the sequence (P25427 122-241 limits assumed) above, with T3S, V6I, M9R, T37M, A60D, E65D, T92M, D94G, A117V, G120A counted along it
# T1 sequence (P01138 122-241 limits assumed): as the sequence (P25427 122-241 limits assumed) above, with T3S, V6I, M9R, T37M, A60D, E65D, T92M, D94G, A117V, G120A counted along it
# T3 sequence (P01139 122-241 limits assumed): as the sequence (P25427 122-241 limits assumed) above, with G40A, K50R, P61S, D94E, A117T counted along it
Binder,IC50 [1] [pM],% Binding p75-hFc [2] [%],IC50 [3] [pM],Kd [4] [pM],t1/2 [4] [h],Kd [5] [pM],Kd (rat NGF (rNGF) [6]) [pM],Kd (mouse NGF (mNGF) [7]) [pM],binding result [8],% Binding TrkA-hFc [9] [%],% binding [10] [%],% binding [11] [%],% binding [12] [%],"IC50 (pM), PC12 SRE-luciferase [23] [pM]",also measured
"REGN476 (antibody, human IgG4 S228P, V domains shown) VH: EVQLVESGGGLVQPGRSLRLSCAAPGFNFDDYAMHWVRQAPGKGLEWVSGISWNSGTIGYADSVKGRFTISRDNAKNSLYLQMNSLRAEDTALYYCAKEGVWFGKLFSSYGMDVWGQGTTVTVSS VL: not shown",65,13,61,8.91,4,8.91,155,115,no binding (tested: 1.25 nM to 40 nM),6,,,,,
"REGN477 (antibody, human IgG4 S228P) heavy: not shown VL: EIVMTQSPATLSVSPGERATLSCRASQSVTYNLDWYQQKPGQAPRLLIFGASTRATGIPARFSGSGSGTEFTLTITSLQSEDFAVYYCQQYNNWPYTFGQGTKLEIKR",65,13,62,7.98,4,7.98,164,133,no binding (tested: 1.25 nM to 40 nM),9,,,,,
"recombinant human TrkA-hFc (Fc fusion, UniProt P04629 33-423, looked up, extracellular domain; dimeric fusion protein; also called hTrkA-hFc; not shown: Fc portion of human IgG1) AAPCPDACCPHGSSGLRCTRDGALDSLHHLPGAENLTELYIENQQHLQHLELRDLRGLGELRNLTIVKSGLRFVAPDAFHFTPRLSRLNLSFNALESLSWKTVQGLSLQELVLSGNPLHCSCALRWLQRWEEEGLGGVPEQKLQCHGQGPLAHMPNASCGVPTLKVQVPNASVDVGDDVLLRCQVEGRGLEQAGWILTELEQSATVMKSGGLPSLGLTLANVTSDLNRKNVTCWAENDVGRAEVSVQVNVSFPASVQLHTAVEMHHWCIPFSVDGQPAPSLRWLFNGSVLNETSFIFTEFLEPAANETVRHGCLRLNQPTHVNNGNYTLLAANPFGQASASIMAAFMDNPFEFNPEDPIPVSFSPVDTNSTSGDPVEKKDETPFGVSVAVG",,,,,,,,,,,5,21,3,,% binding [13]: 7%
"recombinant human p75-hFc (Fc fusion, UniProt P08138 29-250, looked up, extracellular domain; dimeric fusion protein; also called hp75-hFc; not shown: Fc portion of human IgG1) KEACPTGLYTHSGECCKACNLGEGVAQPCGANQTVCEPCLDSVTFSDVVSATEPCKPCTECVGLQSMSAPCVEADDAVCRCAYGYYQDETTGRCEACRVCEAGSGLVFSCQDKQNTVCEECPDGTYSDEANHVDPCLPCTVCEDTERQLRECTRWADAECEEIPGRWITRSTPPEGSDSTAPSTQEPEAPPEQDLIASTVAGVVTTVMGSSQPVVTRGTTDN",,,,,,,,,,,2,14,2,,% binding [13]: 4%
"301272-3H10-A10 (antibody, also called REGN261) heavy: not shown VL: DIRMTQSPSSLSASAGDRVTITCRASQAIRNDLGWYQQKPGKAPKRLIYAAFNLQSGVPSRFSGSGSGTEFTLTISSLQPEDLASYYCQQYNRYPWTFGQGTKLEIK",,2,,,,,,,,1,,,,,Kd [14]: 0.1 pM; Kd [15]: 0.1 pM; Kd (rat NGF (rNGF) [16]): 0.6 pM; Kd (mouse NGF (mNGF) [17]): 0.2 pM; t1/2 [18]: 25.2 h; MG87 IC50 [19]: < 186 pM; PC12 IC50 [19]: 9 pM; Kd [20]: 0.1 pM; binding result [21]: no binding (tested: 20 nM)
"human brain derived neurotrophic factor (hBDNF) (ligand, UniProt P23560 129-247, looked up) HSDPARRGELSVCDSISEWVTAADKKTAVDMSGGTVTVLEKVPVSKGQLKQYFYETKCNPMGYTKEGCRGIDKRHWNSQCRTTQSYVRALTMDSKKRIGWRFIRIDTSCVCTLTIKRGR",,,,,,,,,,,,,,,RN624 % Binding [22]: 100%; REGN475 % Binding (REGN475): 100%
B1,,,,,,,,,,,,,,,RN624 % Binding [22]: 100%; REGN475 % Binding (REGN475): 100%
"REGN472 (antibody, human IgG1) heavy: not shown VL: DIQMTQSPSSLSASVGDRVTITCRASQAIRNDLGWYQQKPGKAPKRLIYAAFNLQSGVPSRFSGSGSGTEFTLTISSLQPEDFATYYCQQYNRYPWTFGQGTKVEIKR",12,7,12,0.41,30,0.41,3.96,0.61,no binding (tested: 1.25 nM to 40 nM),4,,,,4.5,
"REGN474 (antibody, human IgG4 S228P) heavy: not shown VL: DIQMTQSPSSLSASVGDRVTITCRASQAIRNDLGWYQQKPGKAPKRLIYAAFNLQSGVPSRFSGSGSGTEFTLTISSLQPEDFATYYCQQYNRYPWTFGQGTKVEIKR",8.1,9,6.3,0.41,31,0.41,3.42,0.43,no binding (tested: 1.25 nM to 40 nM),6,,,,6.6,
B2,20,10,22,0.18,57,0.18,0.93,0.36,,6,99,90,101,9.6,binding result [24]: no binding (tested: 0 to 4 µM)
